Data on 5 molecules can be found in doi:10.1101/2023.02.19.529116 (bioRxiv, 2023).

B1: Smaug 73-278Δ156-196 (Smaug part of the single-chain construct) (domain or fragment, Drosophila, UniProt Q23972 73-278, looked up)
chain: LFCEQVTTVTNLFEKWNDCERTVVMYALLKRLRYPSLKFLQYSIDSNLTQNLGTSQTNLSSVVIDINANNPVYLQNLLNAYKTARKEDILHEVLNMLPLLKPGNEEAKLIYLTLIPVAVKDTMQQIVPTELVQQIFSYLLIHPAITSEDRRSLNIWLRHLEDHIQ
B2: His-Hs-SAMD4A 2-156 (domain or fragment, human, UniProt Q9UPU9 2-156, looked up)
chain: MFRDQVGVLAGWFKGWNECEQTVALLSLLKRVSQTQARFLQLCLEHSLADCAELHVLEREANSPGIINQWQQESKDKVISLLLTHLPLLKPGNLDAKVEYMKLLPKILAHSIEHNQHIEESRQLLSYALIHPATSLEDRSALAMWLNHLEDRTST
B3: Smaug 70-281 (domain or fragment, Drosophila, UniProt Q23972 70-281, looked up)
chain: SNALFCEQVTTVTNLFEKWNDCERTVVMYALLKRLRYPSLKFLQYSIDSNLTQNLGTSQTNLSSVVIDINANNPVYLQNLLNAYKTFQPCDLLDAMSSSSSDKDSMPCYGSDFQITTSAQCDERKLYARKEDILHEVLNMLPLLKPGNEEAKLIYLTLIPVAVKDTMQQIVPTELVQQIFSYLLIHPAITSEDRRSLNIWLRHLEDHIQAAA
B4: Smoothened 970-1003 synthetic peptide (peptide, UniProt P91682 970-1003, looked up)
peptide: VPSYGEDELQQAMRLLNAASRQRTEAANEDFGGT

For data set [1], the target named is B1. Nature of the data set: crystal structure.
Data set [2] deals with the molecule itself. Nature of the data set: crystal structure.
Data set [3] concerns the molecule itself. Nature of the data set: crystal structure. This is another data set of the same source.
Data set [4] addresses B4. In words: ITC. For orientation: In ITC the heat of successive injections is recorded.
The target in the data set “Smaug 70-281” is B3. In words: ITC.

In general, stoichiometry N refers to a count of units in the complex or per binding partner. In general, Kd refers to the constant that tells how readily two partners part at equilibrium. Read a high Kd as weaker binding.

In the case of VPSYGEDELQQAMRLLNAASRQRTEAANEDFGGT (peptide, UniProt P91682 970-1003, looked up) [Smo 970-1003 (Smoothened part of the single-chain construct)], in data set [1], the binding result was “binds”.

Regarding B1, in the data set “crystal structure [2]”, the binding result is given as “binds”.

In the case of B2, the “stoichiometry N” value in “crystal structure [3]” worked out at 2.

Turning to B3, the “stoichiometry N” value in data set [4] is 1.

On to B4, for which, in the data set with Smaug 70-281, the dissociation constant Kd is 800 nM. This lies in the sub-micromolar range.
